In article PMC5634496 (Nature Communications, 2017):

T1: GST-Ubc13 (UniProt P61088 1-152)
T1 construct: Ubc13 (UBE2N), cDNA in pGEX-4T-1; The end of GST is read from the printed name GST-Ubc13; also called UBE2N; source: E. coli BL21(DE3/pLys), purified (glutathione sepharose beads); not shown: GST, N-terminal, kept
T1 sequence (looked up): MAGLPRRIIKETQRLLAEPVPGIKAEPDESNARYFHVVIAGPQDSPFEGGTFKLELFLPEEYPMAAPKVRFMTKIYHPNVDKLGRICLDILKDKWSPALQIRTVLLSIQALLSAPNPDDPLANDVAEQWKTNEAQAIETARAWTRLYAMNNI

B1: TRAF6 mutant M4 (V315A, R316A, H319A), Flag-tagged (natural protein, mouse, UniProt P70196-1 1-530, looked up)
chain: MSLLNCENSCGSSQSSSDCCAAMAASCSAAVKDDSVSGSASTGNLSSSFMEEIQGYDVEFDPPLESKYECPICLMALREAVQTPCGHRFCKACIIKSIRDAGHKCPVDNEILLENQLFPDNFAKREILSLTVKCPNKGCLQKMELRHLEDHQVHCEFALVNCPQCQRPFQKCQVNTHIIEDCPRRQVSCVNCAVSMAYEEKEIHDQSCPLANIICEYCGTILIREQMPNHYDLDCPTAPIPCTFSVFGCHEKMQRNHLARHLQENTQLHMRLLAQAVHNVNLALRPCDAASPSRGCRPEDPNYEETIKQLESRLAAQDAQIRELTAKMETQSMYVGELKRTIRTLEDKVAEMEAQQCNGIYIWKIGNFGMHLKSQEEERPVVIHSPGFYTGRPGYKLCMRLHLQLPTAQRCANYISLFVHTMQGEYDSHLPWPFQGTIRLTILDQSEALIRQNHEEVMDAKPELLAFQRPTIPRNPKGFGYVTFMHLEALRQGTFIKDDTLLVRCEVSTRFDMGGLRKEGFQPRSTDAGV
notes: TRAF6, mouse, mutant M4 in the CC domain; they may differ (MBP fusion, T6RZC background); also called TRAF6-M4; source: co-IP: Flag-tagged with Myc-tagged TRAF6 WT
B2: TRAF6 mutant M5 (deletion of amino acids 313-319), Flag-tagged (natural protein, mouse, UniProt P70196-1 1-530, looked up)
chain: MSLLNCENSCGSSQSSSDCCAAMAASCSAAVKDDSVSGSASTGNLSSSFMEEIQGYDVEFDPPLESKYECPICLMALREAVQTPCGHRFCKACIIKSIRDAGHKCPVDNEILLENQLFPDNFAKREILSLTVKCPNKGCLQKMELRHLEDHQVHCEFALVNCPQCQRPFQKCQVNTHIIEDCPRRQVSCVNCAVSMAYEEKEIHDQSCPLANIICEYCGTILIREQMPNHYDLDCPTAPIPCTFSVFGCHEKMQRNHLARHLQENTQLHMRLLAQAVHNVNLALRPCDAASPSRGCRPEDPNYEETIKQLESQIRELTAKMETQSMYVGELKRTIRTLEDKVAEMEAQQCNGIYIWKIGNFGMHLKSQEEERPVVIHSPGFYTGRPGYKLCMRLHLQLPTAQRCANYISLFVHTMQGEYDSHLPWPFQGTIRLTILDQSEALIRQNHEEVMDAKPELLAFQRPTIPRNPKGFGYVTFMHLEALRQGTFIKDDTLLVRCEVSTRFDMGGLRKEGFQPRSTDAGV
notes: TRAF6, mouse, mutant M5: one complete heptad unit of the CC domain deleted; they may differ; also called TRAF6-M5; source: co-IP: Flag-tagged with Myc-tagged TRAF6 WT
B3: CC-Flag (TRAF6 coiled-coil domain) (domain or fragment, mouse, UniProt P70196-1 296-400, looked up)
chain: CRPEDPNYEETIKQLESRLVRQDHQIRELTAKMETQSMYVGELKRTIRTLEDKVAEMEAQQCNGIYIWKIGNFGMHLKSQEEERPVVIHSPGFYTGRPGYKLCMR
notes: TRAF6 CC domain, mouse; the limits 296-400 aa are printed in the methods for the CC domain cloned with an MBP tag for E. coli; The end of Flag is read from the printed name CC-Flag; also called CC domain; CC WT; not shown: Flag, C-terminal, kept

Experiments:
[1] = target: the molecule itself; assay: native gel or EMSA; proteins purified on anti-Flag M2 magnetic beads, eluted, resolved on 10% native gel, immunoblot with Flag antibody
GST-Ubc13 = target: T1, GST-Ubc13; assay: pull-down; purified GST-Ubc13 (or GST) mixed with purified TRAF6 fragments and glutathione sepharose beads in lysis buffer A (20 mM Tris-HCl pH 7.4, 150 mM NaCl, 0.5% NP-40, 10% glycerol), 4 °C, 60 min; immunoblot; conditions: both partners purified

Binder | binding result [1] | binding result (GST-Ubc13)
B1 | binds | –
B2 | binds | –
B3 | – | binds
